Measured values as given in the supplement of paper PMC10567573.
± gives the standard deviation.

Assay: protein stability index of a GFP-peptide fusion (GPS, HEK-293T) (PSI 1-6); higher = more stable
[1] = treatment: DMSO, c terminus: a fixed tail appended
[2] = treatment: MLN4924 1 uM, 8 h, c terminus: a fixed tail appended
[3] = treatment: DMSO, c terminus: native
[4] = treatment: MLN4924 1 uM, 8 h, c terminus: native
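Note: 24-mer peptide tiles fused after GFP, lentivirally expressed, FACS-sorted into six equal bins by GFP/DsRed ratio, decoded by Illumina sequencing, PSI is the read-weighted mean bin number.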

| Sequence | protein stability index [1] | protein stability index [2] | protein stability index [3] | protein stability index [4] |
| --- | --- | --- | --- | --- |
| HSYLSGYISLLLRAEPYPTSRFGS [NR2F2] | 3.06 ± 0.33 | 2.85 ± 0.2 |  |  |
| HTPGTPKSAILVPSEKKVAIIRTP [MAP2] | 3.96 ± 0.057 | 4.02 ± 0.2 |  |  |
| HTTRSSLRGPRERAPSERSGPAAS [DVL3] | 5.15 ± 0.24 | 4.75 ± 0.31 |  |  |
| HWRECLFYPALWPQLRICLRVSPA [FBXO33] | 2.42 ± 1.1 | 2.61 ± 0.78 |  |  |
| HYAVNSQFTMGGPAISMASPMSIP [CARM1] | 2.63 ± 0.21 | 2.78 ± 0.24 |  |  |
| HYVAQTGILWLLMNNCFLNLSPRK [GAGE1] | 2.72 ± 0.38 | 3.584 ± 0.027 |  |  |
| HYYLMDDTVEIREVHERNDGIDPF [EFHC1] | 3.92 ± 0.18 | 3.86 ± 0.32 |  |  |
| IAGDEGTQIPADEDTQTDADSSAQ [TAF7L] | 5.58 ± 0.27 | 5.45 ± 0.31 |  |  |
| IDDLEDDPVVNGERSGCALTDAVA [TCF25] | 5.3 ± 0.19 | 5.37 ± 0.11 |  |  |
| IEDEDQILENSSQKENVFKCDSLK [FAN1] | 5.07 ± 0.1 | 5.01 ± 0.35 |  |  |
| IEPRERAKFKRKYKVKLVEKRAFR [NOP53] | 2.87 ± 0.14 | 3.15 ± 0.32 |  |  |
| IERSSSFSSITDSTMSLNIITVTL [DVL3] | 2.8 ± 0.42 | 2.85 ± 0.23 |  |  |
| IETSALDSTNVEEAFKNILTEIYR [RAB11B] | 2.41 ± 0.14 | 2.79 ± 0.29 |  |  |
| IGLGHIYSGTFALIGAAAFLGGVV [CLCN6] | 2.94 ± 0.19 | 3.27 ± 0.7 |  |  |
| IGRDPPAETQPQNPPAQPAPNAWQ [CLPTM1] | 5.21 ± 0.31 | 5.02 ± 0.25 |  |  |
| IIKQIPVEQMTKEERQAAQNECQV [NEK8] | 4.93 ± 0.19 | 4.75 ± 0.24 |  |  |
| IKCFHEIITIGYNVYHSYDLPWFR [CDS2] | 2.21 ± 0.12 | 2.31 ± 0.33 |  |  |
| IKEAKEQHPDMSVTKVVVHKETEI [EPB41L3] | 5.23 ± 0.14 | 5.02 ± 0.21 |  |  |
| IKMAMVACGDAFTVAIGAESEVYS [NEK8] | 2.57 ± 0.78 | 2.57 ± 0.5 |  |  |
| ILDICEDNVPDPKDVKERFSGSLV [TMEM175] | 3.83 ± 0.19 | 4.06 ± 0.13 |  |  |
| ILFLPCLRKKILKIRHGWEDVTKI [STEAP1] | 2.95 ± 0.39 | 2.46 ± 0.42 |  |  |
| ILIREAQNQPIDKARKTYERLVAQ [CSTF3] | 2.83 ± 0.2 | 2.82 ± 0.11 |  |  |

| Sequence | protein stability index [1] | protein stability index [2] | protein stability index [3] | protein stability index [4] |
| --- | --- | --- | --- | --- |
| ILKHTPKEHPDVQLLEDAILIIQG [NET1] | 2.12 ± 0.27 | 1.99 ± 0.35 |  |  |
| ILTADLYSLFVGLFLFGYKFSGLY [SLC35F2] | 2.45 ± 0.49 | 3.27 ± 0.19 |  |  |
| INEDLKTCSRVDYCLLSDHGCEYS [MATN2] | 3.41 ± 0.21 | 3.35 ± 0.33 |  |  |
| INILQNEKSHQVLAQLLDTLLAIG [INTS4] | 2.43 ± 0.31 | 2.17 ± 0.2 |  |  |
| IPGHGGIMDRFDCQYLMATFVNVY [CDS2] | 3 ± 0.46 | 2.54 ± 0.51 |  |  |
| IPRENAQISLDGDVTFFGALKLL [TNFSF13B] |  |  | 2.71 ± 0.24 | 2.73 ± 0.46 |
| IPYNAKFLGSTEVEQPKGTEVVRD [GULP1] | 4.7 ± 0.44 | 4.69 ± 0.23 |  |  |
| IQRIRSEIENVKKQASNLETAIAD [KRT71] | 4.42 ± 0.29 | 4.61 ± 0.31 |  |  |
| IRQLQEQHYQQYMQQLYQVQLAQQ [ACBD3] | 2.23 ± 0.29 | 2.43 ± 0.24 |  |  |
| IRTANCTTANQNCVNKSKLLTDV [KCNA1] |  |  | 3.19 ± 0.13 | 3.35 ± 0.28 |
| IRVPSVPPVPCVPSVPCTPAPQVG [KRT36] | 3.45 ± 0.27 | 3.57 ± 0.25 |  |  |
| ISGLRFETQLKTLAQFPNTLLGNP [KCNA1] | 2.46 ± 0.23 | 2.41 ± 0.11 |  |  |
| ITEALRPAGVGVVVEATHMCMVMR [GCH1] | 2.11 ± 0.38 | 2.29 ± 0.33 |  |  |
| ITESYQTLHPISSEELLSLKYEND [ETS1] | 4.81 ± 0.095 | 4.85 ± 0.22 |  |  |
| IVSHFQKLFDVPSLNGVYPRMNEV [CEP70] | 2.46 ± 0.82 | 2.56 ± 0.53 |  |  |
| IYQQLSRYRGLGLLASVPSNPNGN [CRY1] | 2.4 ± 0.28 | 2.74 ± 0.29 |  |  |
| IYVHILKDTRMAEEYCHKHYDRNK [VPS39] | 2.19 ± 0.39 | 2 ± 0.28 |  |  |
| KADTLKERYQKIGDTKRATPIEVL [CSNK1G3] | 3.88 ± 0.18 | 4.01 ± 0.32 |  |  |
| KAEILESVIKNYEDHFPLLFSEAS [MAGEA10] | 3.06 ± 0.38 | 3.19 ± 0.51 |  |  |
| KALGSDLDSSLASLVGNLGISGTT [SNAP91] | 3.94 ± 0.2 | 3.93 ± 0.15 |  |  |
| KDHSCKDNIREAFQIYDKEASGYV [EFHC1] | 3.72 ± 0.31 | 3.81 ± 0.13 |  |  |
| KDSYSSRDYPSSRDTRDYAPPPRD [RBMX] | 4.08 ± 0.24 | 4.09 ± 0.6 |  |  |

| Sequence | protein stability index [1] | protein stability index [2] | protein stability index [3] | protein stability index [4] |
| --- | --- | --- | --- | --- |
| KEDTLLLIAEVMGEDIPEKIKDEV [C8orf76] | 4.35 ± 0.49 | 4.22 ± 0.38 |  |  |
| KEFILTDEEVQRKREMILKRKEEE [VDR] | 5.33 ± 0.23 | 5.38 ± 0.23 |  |  |
| KELADFIRERATIEETYSKAMAKL [FCHO1] | 3.16 ± 0.21 | 3.31 ± 0.29 |  |  |
| KELEARVRKPAEAERYKLERLAEA [FLOT1] | 4.88 ± 0.29 | 4.95 ± 0.16 |  |  |
| KEQRKQMKGRGQLEKPPAPNQAMV [TBC1D10A] | 4.95 ± 0.1 | 5.01 ± 0.34 |  |  |
| KFLPSSEEDNDDAKILPSPVQGSS [DRICH1] | 5.21 ± 0.25 | 5.47 ± 0.17 |  |  |
| KFTNKEWETIRSFKDEWTQLDMFY [AASDHPPT] | 2 ± 0.36 | 2.22 ± 0.23 |  |  |
| KGRHHRGRGGEPRAYFMSDTREEK [CHGB] | 4.93 ± 0.12 | 4.95 ± 0.096 |  |  |
| KGTPASKLILGMPTYGRSFTLASS [CHIT1] | 2.47 ± 0.28 | 2.54 ± 0.21 |  |  |
| KGVQQKRPSEAQSVILRRYFLELT [DENND6A] | 2.47 ± 0.098 | 2.57 ± 0.22 |  |  |
| KGYPDGVKSIVVKGYNIWTGGPDA [TLE6] | 2.68 ± 0.28 | 2.8 ± 0.49 |  |  |
| KHFKVQLVDNVYCIGQRRFHTMDE [NCK2] | 2.48 ± 0.16 | 2.44 ± 0.37 |  |  |
| KINENVAAGMRFPLPEAIDPDVGV [PCDHGA10] | 3.79 ± 0.081 | 4.26 ± 0.44 |  |  |
| KKGLFLKHVEYEVSSQRFKSSVYR [SNX8] | 2.38 ± 0.14 | 2.91 ± 0.28 |  |  |
| KKKYMPYNHQHKYFFLIGPPALLP [FADS1] | 3.14 ± 0.67 | 1.76 ± 0.053 |  |  |
| KKVLNHGYDDDNHDYIVRSGERWL [DYRK1B] | 3.27 ± 0.39 | 3.55 ± 0.49 |  |  |
| KLERIARLEDKVKTLKAENAGLSS [JUNB] | 3.85 ± 0.34 | 3.97 ± 0.22 |  |  |
| KLKLTNNHLDPFGHIILNSMHKYQ [TBX5] | 2.26 ± 0.37 | 2.34 ± 0.25 |  |  |
| KLPLPSTLRSHLKSFSMAKGLNAR [RAB40A] | 2.56 ± 0.18 | 2.68 ± 0.15 |  |  |
| KLVVHDCPVWDIFDSDWYTSRNLI [RHOBTB3] | 2.62 ± 0.43 | 2.66 ± 0.18 |  |  |
| KMIGFPSSAGSVSPRSTSVTTTSS [KRT13] | 4.4 ± 0.067 | 4.16 ± 0.096 |  |  |
